For this series, the target named is ZNF191 (purified recombinant) (UniProt P17028 1-368). In words: EMSA.
Sequence of ZNF191 (purified recombinant) (P17028 whole entry): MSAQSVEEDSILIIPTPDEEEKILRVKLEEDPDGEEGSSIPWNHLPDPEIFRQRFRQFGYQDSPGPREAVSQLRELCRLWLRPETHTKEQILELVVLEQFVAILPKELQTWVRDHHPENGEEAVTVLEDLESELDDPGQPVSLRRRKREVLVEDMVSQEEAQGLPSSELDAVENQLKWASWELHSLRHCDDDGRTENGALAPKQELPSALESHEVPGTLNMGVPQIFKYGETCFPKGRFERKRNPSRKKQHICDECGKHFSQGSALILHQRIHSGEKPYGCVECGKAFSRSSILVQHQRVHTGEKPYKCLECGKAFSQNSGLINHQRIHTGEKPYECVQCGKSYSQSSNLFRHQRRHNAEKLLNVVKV

B1: WNT8BP(nt-1491) (dsDNA)
DNA 1: GTGAATTTGTGTATTAATTCTTTATTTTCT
DNA 2: AGAAAATAAAGAATTAATACACAAATTCAC
Consider B1, for which the binding result is recorded as “binds”.

B2: WNT8BP(nt-1178) (dsDNA)
DNA 1: GATTATCATGCATTCATTGTATGCCTGTAT
DNA 2: ATACAGGCATACAATGAATGCATGATAATC
Consider B2, for which the binding result was “binds”.

The values are drawn from paper PMC7894019.
